Results published in patent publication US20190016778A1 (Xencor, published 2019).

Molecular target: T1, human CD8 (captured on Octet biosensor) (human, UniProt P01732 22-182)
T1 construct: also called recombinant human CD8a
Assay: method not given; Octet (BLI) is the method of this example

Kd: 12 nM
B1: humanized OKT8 variant (H2L1) (antibody)
chain 1: QVQLVQSGAEVKKPGASVKVSCKASGFNIKDTYIHWVRQAPGKGLEWMGRIDPANDNTLYASKFQGRVTITADTSINTAYMELSRLRSDDTAVYYCGRGYGYYVFDHWGQGTTVTVSSASTKGPSVFPLAPSSKSTSGGTAALGCLVKDYFPEPVTVSWNSGALTSGVHTFPAVLQSSGLYSLSSVVTVPSSSLGTQTYICNVNHKPSNTKVDKKVEPKSCDKTHTCPPCPAPPVAGPSVFLFPPKPKDTLMISRTPEVTCVVVDVKHEDPEVKFNWYVDGVEVHNAKTKPREEQYNSTYRVVSVLTVLHQDWLNGKEYKCKVSNKALPAPIEKTISKAKGQPREPQVYTLPPSREQMTKNQVKLTCLVKGFYPSDIAVEWESNGQPENNYKTTPPVLDSDGSFFLYSKLTVDKSRWQQGNVFSCSVMHEALHNHYTQKSLSLSPGK
chain 2: DIKMTQSPSSLSASVGDRVTITCRTSRSISQYLAWYQEKPGKTNKLLIYSGSTLQSGIPSRFSGSGSGTDFTLTISSLQPEDFATYYCQQHNENPLTFGAGTKLEIKRTVAAPSVFIFPPSDEQLKSGTASVVCLLNNFYPREAKVQWKVDNALQSGNSQESVTEQDSKDSTYSLSSTLTLSKADYEKHKVYACEVTHQGLSSPVTKSFNRGEC
chain 3: EPKSSDKTHTCPPCPAPPVAGPSVFLFPPKPKDTLMISRTPEVTCVVVDVKHEDPEVKFNWYVDGVEVHNAKTKPREEEYNSTYRVVSVLTVLHQDWLNGKEYKCKVSNKALPAPIEKTISKAKGQPREPQVYTLPPSREEMTKNQVSLTCDVSGFYPSDIAVEWESDGQPENNYKTTPPVLDSDGSFFLYSKLTVDKSRWEQGDVFSCSVMHEALHNHYTQKSLSLSPGK
